Laboratory results published in article PMC9604145.

Biological target: Su(H)^wt-myc (Suppressor of Hairless, wildtype, pcDNA3.1) (D. melanogaster) (UniProt P28159)
UniProt P28159, sequence (P28159 whole entry): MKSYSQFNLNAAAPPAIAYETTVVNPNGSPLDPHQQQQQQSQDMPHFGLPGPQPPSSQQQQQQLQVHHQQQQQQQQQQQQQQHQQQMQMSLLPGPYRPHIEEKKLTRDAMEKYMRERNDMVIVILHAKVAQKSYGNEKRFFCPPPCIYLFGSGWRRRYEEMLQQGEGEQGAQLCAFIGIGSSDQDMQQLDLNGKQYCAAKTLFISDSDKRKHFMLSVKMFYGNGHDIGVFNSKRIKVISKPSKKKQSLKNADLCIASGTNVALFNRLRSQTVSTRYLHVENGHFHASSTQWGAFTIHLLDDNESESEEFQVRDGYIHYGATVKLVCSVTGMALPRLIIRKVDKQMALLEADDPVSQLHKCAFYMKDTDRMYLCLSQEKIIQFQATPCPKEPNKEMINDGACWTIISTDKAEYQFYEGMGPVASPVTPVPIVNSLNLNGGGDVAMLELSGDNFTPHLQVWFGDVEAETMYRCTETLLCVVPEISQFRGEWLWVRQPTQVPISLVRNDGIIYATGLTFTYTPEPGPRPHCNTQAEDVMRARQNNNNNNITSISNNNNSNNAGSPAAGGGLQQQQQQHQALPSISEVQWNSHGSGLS

Su(H)^wt-myc protein level (Western blot, relative to beta-tubulin) 0-6 h after cycloheximide in HeLa RBPJ^KO cells co-expressing ICN^RAMANK (% of the induced protein): 70
Substance: ICN^RAMANK (pcDNA-ICN-RAMANK) (domain or fragment)
